Key:
[1] = target: Fc-gp120 WT (human IgG1 Fc fused N-terminal to full-length wild-type gp120 of HIV-1 JR-CSF) (HIV-1 JR-CSF); test: flow cytometry on cells
[2] = target: Fc-gp120 ΔV1V2 (HIV-1 JR-CSF); test: flow cytometry on cells
[3] = target: Fc-gp120 ΔV1V2V3 (HIV-1 JR-CSF); test: flow cytometry on cells
[4] = target: Fc-gp120 ΔV3 (HIV-1 JR-CSF); test: flow cytometry on cells
[5] = target: Fc-DC-SIGN (entire ectodomain of DC-SIGN fused in-frame with the Fc region of IgG1) (UniProt Q9NNX6); test: ELISA
Sequence of UniProt Q9NNX6 (Q9NNX6 59-404): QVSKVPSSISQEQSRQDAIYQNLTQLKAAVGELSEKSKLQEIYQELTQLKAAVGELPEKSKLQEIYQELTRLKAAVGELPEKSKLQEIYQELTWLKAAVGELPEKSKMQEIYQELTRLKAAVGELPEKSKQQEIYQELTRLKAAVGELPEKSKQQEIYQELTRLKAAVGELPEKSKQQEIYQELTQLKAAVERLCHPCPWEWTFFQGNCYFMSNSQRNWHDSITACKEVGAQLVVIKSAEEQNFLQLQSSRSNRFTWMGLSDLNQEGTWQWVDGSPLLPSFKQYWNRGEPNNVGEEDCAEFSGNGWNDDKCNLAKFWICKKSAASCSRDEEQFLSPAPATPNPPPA

Substance | % inhibition of Fc-gp120 binding to CEM cells at 10 μg/ml sCD4 [1] [%] | % inhibition of Fc-gp120 binding to CEM cells at 10 μg/ml sCD4 [2] [%] | % inhibition of Fc-gp120 binding to CEM cells at 10 μg/ml sCD4 [3] [%] | % inhibition of Fc-gp120 binding to CEM cells at 10 μg/ml sCD4 [4] [%] | IC50 [5] [nM]
4-domain recombinant soluble CD4 (domain or fragment) | 100 | 100 | 50 | 100 | –
biotinylated Fc-gp120 (Fc fusion) | – | – | – | – | 0.017

Source: article PMC1543650
